Consider 167 variants from the RNAGym collection of RNA variant scans (doi:10.7554/elife.90254).

B1: LINE1-full (parent)
chain: UACGUAGGUGGUUUUCCCCUGAUAGUGCUAAGGGGGCCUGGAAGUUUGGACUGGGCAGAGCUCAACACAGCGUGGCAAAGUGGCUGUGGCUAGACUGCCUCUCUGGAUUCCUCGUCACUCAGCAGGGCAUCUCUGAGAGAAAUGCC

In the data set the parent is B1. The experiment in a line: self-cleavage, relative activity (ratio to wild type); higher = more cleavage; in vitro, sequencing; the parent is a self-cleaving ribozyme.
Consider U52G A59G, for which the self-cleavage stood at 0.34. Take G54A U102C: the self-cleavage is 0.33. G55A A140G: the self-cleavage turned out to be 0.17. Turning to G54A A141G, the self-cleavage was found to be 0.8.

Consider U52G U96C, for which the self-cleavage came to 0.55. With U52C U102A, the self-cleavage worked out at 0.87. On to U52C U102C, for which the self-cleavage is 1.14. In the case of C51G C71U, the self-cleavage was 1.5.

Regarding G54U U108C, the self-cleavage was found to be 0.36. For A50U C90U, the self-cleavage turned out to be 0.05. In the case of U52C U91C, the self-cleavage turned out to be 0.67. U52C U91A: the self-cleavage is 0.49. G54U U119C: the self-cleavage was 1.34. Take C51U U85A: the self-cleavage turned out to be 0.09. Regarding U52C A94G, the self-cleavage was found to be 0.24.

As for C51U U73A, the self-cleavage is 1.48. Take G54U C90A: the self-cleavage turned out to be 0.06. The same measure for G54U U100C: 0.22. With G54U U143C, the self-cleavage stood at 1.07.

For U52C U112C, the self-cleavage stood at 1.5. The same measure for C51U A121G: 1.85; for G54A G105U: 0.7; for G54A A121G: 0.51. The same measure for G54A A121C: 1.05; for C51U A69U: 0.04; for C51U A69G: 0.66. On to G55C A117C, for which the self-cleavage turned out to be 0.42. In the case of G54A U87C, the self-cleavage worked out at 0.1. For G54A U87A, the self-cleavage turned out to be 0.06. With G53U U115C, the self-cleavage turned out to be 1.91. In the case of G53C A65U, the self-cleavage turned out to be 0.2. The same measure for G53U A142G: 1.2; for U52A A117U: 1.35; for U52A A117G: 1.43. As to U52C G114A, the self-cleavage came out at 1.24. Take G55A A107G: the self-cleavage stood at 0.22. The same measure for U52C A65U: 0.19; for G54U C71U: 0.16; for U52C G139A: 0.78. C51U U130C: the self-cleavage turned out to be 1.4. As to U52A C128U, the self-cleavage worked out at 1.38.

Take U52C U81G: the self-cleavage amounted to 1.31. Regarding U52C U81C, the self-cleavage is 1.08. As for U52A U119A, the self-cleavage came out at 1.47.

In the case of U52A U119C, the self-cleavage was determined as 1.48. Turning to U52C C71U, the self-cleavage is 0.7. Take G54U A69G: the self-cleavage turned out to be 0.17.

U52C U104C: the self-cleavage came to 1.1. As to U52C U104A, the self-cleavage was 1.02. Turning to G54A G75C, the self-cleavage turned out to be 0.33. With G54U A65G, the self-cleavage is 0.03.

With C51U A142U, the self-cleavage worked out at 0.87. The same measure for G54U U104C: 1.28; for G54A U100A: 0.16. For the variant G54A U100C, the self-cleavage is 0.31.

Turning to G54U G114U, the self-cleavage is 0.74. G54U U81A: the self-cleavage worked out at 0.39. Consider G53U G70C, for which the self-cleavage was found to be 0.14. Turning to A50U G144A, the self-cleavage came out at 1.37. In the case of A50U G144C, the self-cleavage turned out to be 0.79. Take G54U A136G: the self-cleavage is 1. Consider C51A A141G, for which the self-cleavage was 1.75. The same measure for C51A A138G: 1.44; for G53U U119A: 1.33; for U52A U85C: 0.2.

As for A50U U85A, the self-cleavage was found to be 0.05. Turning to G53A U109C, the self-cleavage was 0.27.

Turning to G54C U81A, the self-cleavage was found to be 0.4.

Take C51A U73G: the self-cleavage is 0.69. The same measure for U52G U85C: 0.15. Consider U52C, for which the self-cleavage is 1.24. Take U52G: the self-cleavage was 1.45.

As to U52A, the self-cleavage turned out to be 1.34. With G54A G83A, the self-cleavage is 0.52. Turning to G55A U112C, the self-cleavage is 0.14. C51U U81C: the self-cleavage is 1.57.

For G53U C99U, the self-cleavage worked out at 0.13. As to U52G G144A, the self-cleavage was 1.34.

U52C U143A: the self-cleavage came to 1.84. The same measure for C51U A136G: 1.34; for U52A G75U: 0.45. The same measure for U52A G54C: 0.43; for U52G A94U: 0.42; for C51U U100C: 1.68. In the case of G54A U132C, the self-cleavage is 0.53. Turning to U52A A59U, the self-cleavage came out at 0.4. As for U52A A59G, the self-cleavage stood at 0.03.

As for G54A U143A, the self-cleavage came out at 0.45. In the case of U52A G114C, the self-cleavage is 1.34.

On to U52A A92U, for which the self-cleavage stood at 0.86. Consider U52C C116U, for which the self-cleavage came out at 1.39. The same measure for U52A A140U: 1.57; for C51U G137U: 1.25. The same measure for C51U C90A: 0.01; for U52G A57G: 0.82; for A50U U109A: 0.78. Consider G54U U62A, for which the self-cleavage turned out to be 0.02.

C51U A64U: the self-cleavage came to 0.46. Consider U52G G80C, for which the self-cleavage stood at 0.97. Regarding U52C U96A, the self-cleavage is 0.1. With U52C A78U, the self-cleavage was found to be 1.56. Regarding C51A U108A, the self-cleavage was determined as 1.31. The same measure for G54U G105A: 0.87. With G54C U96C, the self-cleavage was 0.03.

In the case of U52A C110U, the self-cleavage came to 1.23. On to U52A C110A, for which the self-cleavage was determined as 1.66.

Take U52A C110G: the self-cleavage turned out to be 1.15.

Turning to G55U A59G, the self-cleavage was 0.05.

Regarding U52A G80C, the self-cleavage turned out to be 0.98. G54A U119C: the self-cleavage stood at 1.35. For the variant G53C, the self-cleavage was determined as 1.13.

For the variant G53A, the self-cleavage was determined as 1.32. The same measure for G53U: 1.25; for U52A G126C: 1.81. Turning to A50U U73C, the self-cleavage was 2.09.

Regarding G53A A107G, the self-cleavage was found to be 1.28.

Turning to G55C A107U, the self-cleavage was determined as 0.08.

Turning to A50U G86A, the self-cleavage came out at 0.06. Consider G53U U130A, for which the self-cleavage was determined as 1.53. The same measure for U52A A69U: 0.08; for G53A A129G: 1.4; for C51A U100C: 1.93. On to G54C A117U, for which the self-cleavage is 1.23. G54U A92G: the self-cleavage worked out at 0.08. Regarding U52A A124U, the self-cleavage came out at 1.15. For the variant U52A A124G, the self-cleavage stood at 1.07. As for U52C A67U, the self-cleavage is 0.16. The same measure for A50U G70C: 0; for U52A G55A: 0.3. Consider G53U A141G, for which the self-cleavage is 1.58. The same measure for G53A A57G: 0.73. As to U52A C95A, the self-cleavage was determined as 0.09.

Turning to C51A U115C, the self-cleavage turned out to be 1.5. For the variant U52A U73C, the self-cleavage was determined as 2.24.

With U52A U73A, the self-cleavage is 1.63.

Consider U52A U102C, for which the self-cleavage came to 0.88.

Consider U52G A79G, for which the self-cleavage was determined as 1.31. In the case of G54A A77G, the self-cleavage was found to be 1.02. The same measure for U52A U100C: 1.96. In the case of G55A C111U, the self-cleavage amounted to 0.3. In the case of U52A A79U, the self-cleavage came to 2.26. The same measure for U52A U91A: 0.63; for A50U U62C: 0.04; for G55A C63U: 0.13. On to U52A C146A, for which the self-cleavage was 1.16. With G54A U62C, the self-cleavage worked out at 0.07. The same measure for G54A U62A: 0.01; for G53U U134A: 0.68.

As for U52A U130G, the self-cleavage came out at 1.24. As for U52C U130C, the self-cleavage came to 1.84. U52C U130A: the self-cleavage is 1.04. For the variant G54A A136U, the self-cleavage was found to be 0.67. As for G54A A136G, the self-cleavage turned out to be 0.62. Consider U52G U87G, for which the self-cleavage was 0.59. The same measure for C51U A65G: 0.05; for G54A A65U: 0.1; for G54A A65G: 0.02. The same measure for G54U A78G: 0.44; for C51U U62C: 0.05. Consider G54A A129G, for which the self-cleavage stood at 0.76. Regarding G54A A129U, the self-cleavage was determined as 0.4. For U52A A129U, the self-cleavage was found to be 1.73. The same measure for U52C G53A: 0.6. With U52C U115A, the self-cleavage stood at 1.34. Regarding G53A C61U, the self-cleavage was determined as 0.03. With U52A C145U, the self-cleavage turned out to be 1.6.

With A50U U115C, the self-cleavage came to 1.17.
